The supplement of paper PMC7877785
± gives the uncertainty stated by the source.

Test: self-splicing fitness, log relative to wild type (ln ratio); higher = more splicing; Tetrahymena group I intron in knt gene, E. coli kanamycin selection, DiMSum; sequences stand for … in CUCUCU…GGAGGGAAAAGUUAUCAGGCAUGCACCUGGUAGCUAGUCUUUAAACCAAUAGAUUGCAUCGGUUUAAAAGGCAAGACCGUCAAAUUGCGGGAAAGGGGUCAACAGCCGUUCAGUACCAAGUCUCAGGGGAAACUUUGAGAUGGCCUUGCAAAGGGUAUGGUAAUAAGCUGACGGACAUGGUCCUAACCACGCAGCCAAGUCCUAAGUCAACAGAUCUUCUGUUGAUAUGGAUGCAGUUCACAGACUAAAUGUCGGUCGGGGAAGAUGUAUUCUUCUCAUAAGAUAUAGUCGGACCUCUCCUUAAUGGGAGCUAGCGGAUGAAGUGAUGCAACACUGGAGCCGCUGGGAACUAAUUUGUAUGCGAAAGUAUAUUGAUUAGUUUUGGAGUACUCGUGGUCG
Method in brief: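 The eight P1ex-region nucleotides of an intron in the knt kanamycin-resistance gene on pET-22b(+) were all randomised and the library put into E. coli BL21(DE3). Six replicate transformations were grown overnight at 37°C or 30°C on LB agar with or without 25 μg/mL kanamycin, together with 100 μg/mL carbenicillin, 50 μM IPTG and 0.2% rhamnose. Colonies were pooled and amplicon-sequenced on an Illumina HiSeq 2500. Fitness from DiMSum is the error-weighted combination of wild-type-normalised replicate fold changes, kanamycin over none.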

| Sequence | self-splicing fitness (ln) (30 °C) | self-splicing fitness (ln) (37 °C) |
| --- | --- | --- |
| GGGGAGCAAUAUUACGCUUU | -2.18 ± 0.27 | – |
| CUGAAGCAAUAUUACGUCGU | -3.23 ± 0.26 | -1.79 ± 0.21 |
| GGACAGCAAUAUUACGGCGA | -0.0139 ± 0.1 | -0.0325 ± 0.11 |
| GGAUAGCAAUAUUACGUUUG | -2.95 ± 0.2 | -1.87 ± 0.21 |
| GUGAAGCAAUAUUACGUAGA | -2.33 ± 0.17 | -0.683 ± 0.17 |
| UCAAAGCAAUAUUACGUAGU | -3.63 ± 0.21 | -1.69 ± 0.17 |
| UUUUAGCAAUAUUACGACGC | -2.17 ± 0.31 | -1.56 ± 0.28 |
| GCCGAGCAAUAUUACGACUG | -2.66 ± 0.23 | -3.53 ± 0.42 |
| UGGCAGCAAUAUUACGGAAG | -1.78 ± 0.13 | -0.447 ± 0.12 |
| GAUGAGCAAUAUUACGUAUC | -3.54 ± 0.37 | -2.64 ± 0.31 |
| CAUCAGCAAUAUUACGCAUU | -1.36 ± 0.079 | -0.544 ± 0.1 |
| CAGAAGCAAUAUUACGGAUG | -2.75 ± 0.17 | -2.6 ± 0.21 |
| UUGCAGCAAUAUUACGGUCG | -0.4 ± 0.089 | 0.21 ± 0.12 |
| CCCCAGCAAUAUUACGCUCU | -3.81 ± 0.22 | -2.47 ± 0.26 |
| CACUAGCAAUAUUACGCCAU | -3.88 ± 0.44 | -2.45 ± 0.28 |
| UAAAAGCAAUAUUACGCGGG | -2.62 ± 0.1 | -1.43 ± 0.12 |
| ACAGAGCAAUAUUACGUAAC | -2.71 ± 0.11 | -3.27 ± 0.26 |
| AGCAAGCAAUAUUACGUGUU | -3.17 ± 0.18 | -2.64 ± 0.17 |
| UUCUAGCAAUAUUACGGUUG | -1.64 ± 0.11 | -1.78 ± 0.17 |
| UGUAAGCAAUAUUACGGUGG | -3.54 ± 0.19 | -1.27 ± 0.13 |
| CACCAGCAAUAUUACGGACG | -0.37 ± 0.058 | 0.374 ± 0.08 |

| Sequence | self-splicing fitness (ln) (30 °C) | self-splicing fitness (ln) (37 °C) |
| --- | --- | --- |
| AGAAAGCAAUAUUACGCUUU | -3.57 ± 0.23 | -3.24 ± 0.4 |
| UUAUAGCAAUAUUACGUCUC | -3.25 ± 0.33 | -2.13 ± 0.3 |
| GCCAAGCAAUAUUACGCGAA | -1.2 ± 0.1 | -0.257 ± 0.11 |
| AGUCAGCAAUAUUACGGGUU | -0.799 ± 0.077 | -0.628 ± 0.086 |
| ACAUAGCAAUAUUACGAAGG | -3.69 ± 0.28 | -1.33 ± 0.18 |
| UCUAAGCAAUAUUACGAACG | -1.64 ± 0.094 | -1.28 ± 0.11 |
| ACGCAGCAAUAUUACGCCAA | -3.3 ± 0.2 | -1.75 ± 0.17 |
| CGCAAGCAAUAUUACGGCCA | -1.14 ± 0.13 | -0.716 ± 0.12 |
| AUCAAGCAAUAUUACGAAGG | -3.36 ± 0.19 | -2.96 ± 0.26 |
| AUCCAGCAAUAUUACGUGGG | -2.58 ± 0.1 | -3.5 ± 0.13 |
| CCCCAGCAAUAUUACGUACG | -3.95 ± 0.26 | -1.89 ± 0.17 |
| UAUUAGCAAUAUUACGUCAA | -1.86 ± 0.21 | -1.34 ± 0.24 |
| GAAGAGCAAUAUUACGAAAC | -2.57 ± 0.27 | -1.38 ± 0.39 |
| GUGAAGCAAUAUUACGGGGA | -2.85 ± 0.22 | -2.64 ± 0.29 |
| CGGGAGCAAUAUUACGCGUG | -3.47 ± 0.18 | -1.65 ± 0.13 |
| UCUAAGCAAUAUUACGACAA | -1.13 ± 0.11 | -1.33 ± 0.11 |
| UCAUAGCAAUAUUACGAUUU | -3.45 ± 0.22 | -2.24 ± 0.22 |
| GACAAGCAAUAUUACGACAU | -0.624 ± 0.011 | -0.191 ± 0.032 |
| AGGUAGCAAUAUUACGCCGC | -3.58 ± 0.053 | -2.77 ± 0.067 |
| GCAGAGCAAUAUUACGUAGA | -2.99 ± 0.15 | -1.78 ± 0.14 |
| ACUAAGCAAUAUUACGCUUG | -3.11 ± 0.21 | -2.1 ± 0.19 |
